Test results as given in patent publication US20100291682, “SYSTEM FOR TRANSPOSING HYPERACTIVE RECOMBINANT DERIVATIVES OF MOS-1 TRANSPOSON” (published 2010).
Where a chain is given by its changes, count along the chain named.

Legend:
Assay in all cases: cell_activity; 3T40 transposition in E. coli T5 vs 3T3/WT
Details in all cases: chain copies: 2
Mos-1 transposase FTY = target: T1, Mos-1 transposase FTY (Drosophila mauritiana, UniProt Q7JQ07 SEQ:1-345, F53Y,T216A,Y237C)
T1 sequence: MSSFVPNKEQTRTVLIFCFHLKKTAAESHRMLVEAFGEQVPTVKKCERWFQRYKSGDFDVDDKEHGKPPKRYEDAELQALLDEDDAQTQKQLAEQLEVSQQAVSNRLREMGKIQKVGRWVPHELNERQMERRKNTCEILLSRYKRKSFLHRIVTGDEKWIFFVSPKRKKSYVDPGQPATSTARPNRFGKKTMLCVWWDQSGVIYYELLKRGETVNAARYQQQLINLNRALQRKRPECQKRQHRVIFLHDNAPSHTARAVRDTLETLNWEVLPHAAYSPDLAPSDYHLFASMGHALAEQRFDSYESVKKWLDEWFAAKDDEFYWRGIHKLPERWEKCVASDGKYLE
Procedure: (§1) Escherichia coli JM109 bacteria were co-transformed with the pBC 3T3 plasmid (comprising a transposition reporter 2 ITR 3′ mariner-like element and the chloramphenicol resistance gene) and with the inducible vector encoding for the transposase (pKK-Tnp or pMal-Tnp) comprising the ampicillin resistance gene. The bacteria selection was performed on ampicillin (100 μg/ml) and chloramphenicol in order to verify the presence of the two plasmids.
(§2) The JM109 bacteria containing both the pBC 3T3 plasmid and the pKK-Tnp (or pMalC2X-Tnp) plasmid were placed in culture for 1 hr at 37° C. in 250 μl of LB. This inoculum was then poured into 5 ml of LB supplemented with 1 mM IPTG. The culture was titrated on LB plates (100 μl of a 1/1000 dilution) and on LB-Tet plates (12.5 μg/ml) (250 μl of the non-diluted culture). The culture induced by IPTG was then cultured for 5 hours at 32° C. (optimal temperature of transposase) under stirring (250 rpm). The bacterial suspension was then titrated on LB plates (100 μl of a 1/250,000 dilution) and on LB-tet plates (100 μl of the undiluted bacterial suspension). The plates were placed at 37° C. overnight. The following day, the colonies were counted on LB and LB-Tet plates, and the transposition frequency (equal to the number of tetracycline bacteria over the number of bacterial per 1 ml of undiluted bacterial suspension) was calculated.
(§3) In order to evaluate the transposition efficiency of systems associating a hyperactive transposase and a pseudo-transposon that is also hyperactive, various combinations were tested in the transposition test in bacteria described in part I, paragraph I-B above.

Mos-1 transposase FQET = target: T2, Mos-1 transposase FQET (Drosophila mauritiana, UniProt Q7JQ07 SEQ:1-345, F53Y,Q91R,E137K,T216A)
T2 sequence: T1 sequence with Q91R, E137K, C237Y
Procedure: as §1, §2, §3

Mos-1 transposase ET = target: T3, Mos-1 transposase ET (Drosophila mauritiana, UniProt Q7JQ07 SEQ:1-345, E137K,T216A)
T3 sequence: T1 sequence with Y53F, E137K, C237Y
Procedure: as §1, §2, §3

Mos-1 transposase FT = target: T4, Mos-1 transposase FT (Drosophila mauritiana, UniProt Q7JQ07 SEQ:1-345, F53Y,T216A)
T4 sequence: T1 sequence with C237Y
Procedure: as §1, §2, §3

Mos-1 transposase FQ = target: T5, Mos-1 transposase FQ (Drosophila mauritiana, UniProt Q7JQ07 SEQ:1-345, F53Y,Q91R)
T5 sequence: T1 sequence with Q91R, A216T, C237Y
Procedure: as §1, §2, §3

B1: ITR40 (dsDNA)
DNA 1: TCAGGTGTACAAGTATGTAATGTCGTTA
DNA 2: TAACGACATTACATACTTGTACACCTGA
With B1 the activity (Mos-1 transposase FTY) was 2.4 fold, the activity (Mos-1 transposase FQET) was 3.7 fold and the activity (Mos-1 transposase ET) was 8.9 fold. It also gave an activity (Mos-1 transposase FT) of 2 fold and an activity (Mos-1 transposase FQ) of 2.5 fold.
